Test results reported in the RNAGym collection of RNA variant scans (doi:10.7554/elife.80360).

B1: HDV Ribozyme (parent)
chain: GGCCGGCAUGGUCCCAGCCUCCUCGCUGGCGCCGGCUGGGCAACAUUCCGAGGGGACCGUCCCCUCGGUAAUGGCGAAUGGGACCCA

Variants of: B1
Test: self-cleavage, relative activity (ratio to wild type); higher = more cleavage; co-transcriptional

Going from GGCCGGCAUGGUCCCAGCCUUCUCGCUGGCGCCGGCUGGGCAACAUUCCGAGGGGACCGUCCCCUCGGUAGUGGCGAAUGGGACCCA to GGCCGGCAUGGUCCCAGCCUUCUCGCUGGCGCCCGCUGGGCAACAUUCCGAGGGGACCGUCCCCUCGGUAAUGGCGAAUGGGACCCA, the self-cleavage falls from 0.243 to 0.

Compared with GGCCGGCAUGGUCCCAGCCUUCUCGCUGGCGCCGGCUGGGCAACAUUCCGACGGGACCGUCCCCUCGGUAAUGGCGAAUGGGACCCA, GGCCGGCAUGGUCCCAGCCUUCGCGCUGGCGCCGGCUGGGCAACAUUCCGAGGGGACCGUCCCCUCGGUAAUGGCGAAUGGGACCCA is lower in self-cleavage: 0.173 for the first, 0.13 for the second.

First: GGCCGGCAUGGUCCCAGCCUUCCCGCUGGCGCCGGCUGGGCAACAUUCCGAGGGGACCGUCCCCUCGGUAAUGGCGAAUGGGACCCA
Second: GGCCGGCAUGGUCCCAGCCUUCUCCCUGGCGCCGGCUGGGCAACAUUCCGAGGGGACCGUCCCCUCGGUAAUGGCGAAUGGGACCCA
The self-cleavage of the first is higher: 0.175 for the first, 0.119 for the second.

Going from GGCCGGCAUGGUCCCAGCCUUCUCGCUGACGCCGGCUGGGCAACAUUCCGAGGGGACCGUCCCCUCGGUAAUGGCGAAUGGGACCCA to GGCCGGCAUGGUCCCAGCCUUCUCGCUGCCGCCGGCUGGGCAACAUUCCGAGGGGACCGUCCCCUCGGUAAUGGCGAAUGGGACCCA, the self-cleavage rises from 0.0683 to 0.0773.

Going from GGCCGGCAUGGUCCCAGCCUGCUCGCUGGCGCCGGCUGGGCAACAUUCCGAGGGGACCGUCCCCGCGGUAAUGGCGAAUGGGACCCA to GGCCGGCAUGGUCCCAGCCUUCUCGCUGGCGCCGGCUGGGCCACAUUCCGAGGGGACCGUCCCCUCGGUAAUGGCGAAUGGGACCCA, the self-cleavage rises from 0 to 0.203.

First: GGCCGGCAUGGUCCCAGCCUUCUCGCUGGCGCCGGCUGGGCGACAUUCCGAGGGGACCGUCCCCUCGGUAAUGGCGAAUGGGACCCA
Second: GGCCGGCAUGGUCCCAGCCUUCUCGCUGGCGCCGGGUGGGCAACAUUCCGAGGGGACCGUCCCCUCGGUAAUGGCGAAUGGGACCCA
The self-cleavage of the first is higher: 0.0652 for the first, 0 for the second.

Going from GGCCGGCAUGGUCCCAGCCUGCUCGCUGGCGCCGGCUGGGCAACAUUCCGAGGGGACCGCCCCCUCGGUAAUGGCGAAUGGGACCCA to GGCCGGCAUGGUCCCAGCCUUCUCGCUGGCGCCGGCUGGGCAACAUUCCGAGGGGACCGUCGCCUCGGUAAUGGCGAAUGGGACCCA, the self-cleavage rises from 0.0489 to 0.244.

Going from GGCCGGCAUGGUCCCAGCCUGCUCGCUGGCGCCGGCUGGGCAACAUUCCGAGGGCACCGUCCCCUCGGUAAUGGCGAAUGGGACCCA to GGCCGGCAUGGUCCCAGCCUGCUCGCUGGCGCCGGCUGGGCAACAUUCCGAGGGAACCGUCCCCUCGGUAAUGGCGAAUGGGACCCA, the self-cleavage falls from 0.135 to 0.0941.

First: GGCCGGCAUGGUCCCAGCCUUCUCGCUGGCGCCGGCUGGGCAACAUUCCGAGGGGACCGUCCCGUCGGUAAUGGCGAAUGGGACCCA
Second: GGCCGGCAUGGUCCCAGCCUUCUCGCUGGCGCCGGCUGGGCAACAUUCCGAGUGGACCGUCCCCUCGGUAAUGGCGAAUGGGACCCA
The self-cleavage of the first is higher: 0.364 for the first, 0.234 for the second.

Going from GGCCGGCAUGGUCCCAGCCUUCUCGCUGGCGCCGGCUGGGCAACAAUCCGAGGGGACCGUCCCCUCGGUAAUGGCGAAUGGGACCCA to GGCCGGCAUGGUCCCAGCCUUCUCGCUGGCGCCGGCUGGGCAACACUCCGAGGGGACCGUCCCCUCGGUAAUGGCGAAUGGGACCCA, the self-cleavage falls from 0.511 to 0.386.

Going from GGCCGGCAUGGUCCCAGCCUUCUCGCUGGCGCCGGCUGGGCAACAGUCCGAGGGGACCGUCCCCUCGGUAAUGGCGAAUGGGACCCA to GGCCGGCAUGGUCCCAGCCUUCUCGCUGGCGCCGGCUGGGCAACAUUCCGAGGGGACCGUCCCCUCGGUAAUGGCGAAUGGGACUCA, the self-cleavage rises from 0.0978 to 0.511.

Compared with GGCCGGCAUGGUCCCAGCCUUCUCGCUGGCGCCGGCUGGGCAACUUUCCGAGGGGACCGUCCCCUCGGUAAUGGCGAAUGGGACCCA, GGCCGGCAUGGUCCCAGCCUUCUCGCUGGCGCCGGCUGGGCAACAUUCCGAGGGGACCGUCCCCUCGGUAAUGGCGAAUGGGACCAA is higher in self-cleavage: 0.283 for the first, 0.505 for the second.

First: GGCCGGCAUGGUCCCAGCCUUCUCGCUGGCGCCGGCUGGGCAACAUUCCGAGGGGACCGUCCCCUCGGUAAUGGCGAAUGGGACCGA
Second: GGCCGGCAUGGUCCCAGCCUGCUCGCUGGCGCCGGCUGGGCAACAUUCCGAGGGGACCGUCCCCUCGGUAACGGCGAAUGGGACCCA
The self-cleavage of the first is higher: 0.253 for the first, 0.0426 for the second.

First: GGCCGGCAUGGUCCCAGCCUGCUCGCUGGCGCCGGCUGGGCAACAUUCCGAGGGGACCGUCCCCUCUGUAAUGGCGAAUGGGACCCA
Second: GGCCGGCAUGGUCCCAGCCUGCUCGCAGGCGCCGGCUGGGCAACAUUCCGAGGGGACCGUCCCCUCGGUAAUGGCGAAUGGGACCCA
The self-cleavage of the first is higher: 0.0723 for the first, 0 for the second.

First: GGCCGGCAUGGUCCCAGCCUGCUCGCUGGCGCCGGCUGGGCAACAUUCCGAGGGGACCGUCCCCUCGUUAAUGGCGAAUGGGACCCA
Second: GGCCGGCAUGGUCCCAGCCUGCUCGCUGGCGCCGGCUGGGCAACAUUCCGAGGGGACCCUCCCCUCGGUAAUGGCGAAUGGGACCCA
The self-cleavage of the first is lower: 0 for the first, 0.106 for the second.

Compared with GGCCGGCAUGGUCCCAGCCUGCUCGCUGGCGCCGGCUGGGCAACAUUCCGAGGGGACCGUCCCCUCGGUAAUGGCCAAUGGGACCCA, GGCCGGCAUGGUCCCAGCCUUCUCGCUGGCGCCGGCUGGGCAACAUUCCGAGGGGACCGUCCCCUCGGAAAUGGCGAAUGGGACCCA is higher in self-cleavage: 0 for the first, 0.148 for the second.

Going from GGCCGGCAUGGUCCCAGCCUUCUCGCUGGCGCCGGCUGGGCAACAUUCCGAGGGGACCGUCCCCUCGGGAAUGGCGAAUGGGACCCA to GGCCGGCAUGGUCCCAGCCUUCUCGCUGGCGCCGGCUGGGCAACAUUCCGAGGGGACCGUCCGCUCGGUAAUGGCGAAUGGGACCCA, the self-cleavage falls from 0.19 to 0.119.

First: GGCCGGCAUGGUCCCAGCCUUCUCGCUGGCGCCGGCUGGGCAACAUUCCGAGGGGACCGGCCCCUCGGUAAUGGCGAAUGGGACCCA
Second: GGCCGGCAUGGUCCCAGCCUGCUCGCUGGCGCCGGCAGGGCAACAUUCCGAGGGGACCGUCCCCUCGGUAAUGGCGAAUGGGACCCA
The self-cleavage of the first is higher: 0.122 for the first, 0.119 for the second.

First: GGCCGGCAUGGUCCCAGCCUGCUCGCUGGCGCCGGCCGGGCAACAUUCCGAGGGGACCGUCCCCUCGGUAAUGGCGAAUGGGACCCA
Second: GGCCGGCAUGGUCCCAGCCUUCUCGGUGGCGCCGGCUGGGCAACAUUCCGAGGGGACCGUCCCCUCGGUAAUGGCGAAUGGGACCCA
The self-cleavage of the first is lower: 0.0615 for the first, 0.406 for the second.

Going from GGCCGGCAUGGUCCCAGCCUUCUCGCUGGCGUCGGCUGGGCAACAUUCCGAGGGGACCGUCCCCUCGGUAAUGGCGAAUGGGACCCA to GGCCGGCAUGGUCCCAGCCUUCUCGCUGGCGCCGGCUGGGCACCAUUCCGAGGGGACCGUCCCCUCGGUAAUGGCGAAUGGGACCCA, the self-cleavage falls from 0.205 to 0.0545.

First: GGCCGGCAUGGUCCCAGCCUUCUCGCUGGCGCCGGCUGGGCAACAUUCCGAGGGGACCGUCCCCUCAGUAAUGGCGAAUGGGACCCA
Second: GGCCGGCAUGGUCCCAGCCUUCUCGCUGGCGCCGGCCGGGCAACAUUCCGAGGGGACCGUCCCCUCGGUAAUGGCGAAUGGGACCCA
The self-cleavage of the first is lower: 0.158 for the first, 0.354 for the second.

Going from GGCCGGCAUGGUCCCAGCCUGCUCGCUGGCGCCGGCUGGGCAACAUUCCGAGGGGACCGUCCCCUCGGUAAUGGCGAAUCGGACCCA to GGCCGGCAUGGUCCCAGCCUUCUCGCUGGCGCCGGCUGGGCAACAUUCCGAGGGGACCAUCCCCUCGGUAAUGGCGAAUGGGACCCA, the self-cleavage falls from 0.177 to 0.154.

First: GGCCGGCAUGGUCCCAGCCUUCUCGCUGGCGCCGGCUGGGCAACAUUCUGAGGGGACCGUCCCCUCGGUAAUGGCGAAUGGGACCCA
Second: GGCCGGCAUGGUCCCAGCCUUCUCGCUGGCGCCGGCUGGGCAACAUUCGGAGGGGACCGUCCCCUCGGUAAUGGCGAAUGGGACCCA
The self-cleavage of the first is higher: 0.245 for the first, 0.102 for the second.

Going from GGCCGGCAUGGUCCCAGCCUUCUCGCUCGCGCCGGCUGGGCAACAUUCCGAGGGGACCGUCCCCUCGGUAAUGGCGAAUGGGACCCA to GGCCGGCAUGGUCCCAGCCUUUUCGCUGGCGCCGGCUGGGCAACAUUCCGAGGGGACCGUCCCCUCGGUAAUGGCGAAUGGGACCCA, the self-cleavage rises from 0.0449 to 0.0702.

Going from GGCCGGCAUGGUCCCAGCCUGCUCGCUGGCGCCGGCUGGGCAACAUUCCGAGGGGACCGUCCCCUCGGUAAUGACGAAUGGGACCCA to GGCCGGCAUGGUCCCAGCCUGCUCGCUGGCGCCGGCUGGGCAACAUUCCGAGGGGACCGUCCCCUCGGUAAUGUCGAAUGGGACCCA, the self-cleavage rises from 0.0511 to 0.0554.

Going from GGCCGGCAUGGUCCCAGCCUGCUCGCUGGCGCCGGCUGGGCAACACUCCGAGGGGACCGUCCCCUCGGUAAUGGCGAAUGGGACCCA to GGCCGGCAUGGUCCCAGCCUUCUCGCUGGCGCCGGCUGGGCAACAUUCCGAGGGGACCGUACCCUCGGUAAUGGCGAAUGGGACCCA, the self-cleavage rises from 0.104 to 0.176.

Going from GGCCGGCAUGGUCCCAGCCUUCUCGCUGGCGCCGGCUGGGCAACAUUCCGAGGGGACCGUCCCCUCGGUAAUGGCGAAUAGGACCCA to GGCCGGCAUGGUCCCAGCCUUCUCGCUGGCGCCGGCUGGGCAACAUUCCGAGGGGACGGUCCCCUCGGUAAUGGCGAAUGGGACCCA, the self-cleavage rises from 0.185 to 0.227.

First: GGCCGGCAUGGUCCCAGCCUUCUCGCUGGCGCCGGCUGGGCAACAUUCCGAGGGCACCGUCCCCUCGGUAAUGGCGAAUGGGACCCA
Second: GGCCGGCAUGGUCCCAGCCUUCUCGCUGGCGCCGGCUGGGCAACAUUCCGAGGGAACCGUCCCCUCGGUAAUGGCGAAUGGGACCCA
The self-cleavage of the first is lower: 0.18 for the first, 0.231 for the second.

Compared with GGCCGGCAUGGUCCCAGCCUUCUCGCGGGCGCCGGCUGGGCAACAUUCCGAGGGGACCGUCCCCUCGGUAAUGGCGAAUGGGACCCA, GGCCGGCAUGGUCCCAGCCUUCUCGCUGGCGCGGGCUGGGCAACAUUCCGAGGGGACCGUCCCCUCGGUAAUGGCGAAUGGGACCCA is higher in self-cleavage: 0.0755 for the first, 0.104 for the second.

Compared with GGCCGGCAUGGUCCCAGCCUUCUCGCUGGCGCUGGCUGGGCAACAUUCCGAGGGGACCGUCCCCUCGGUAAUGGCGAAUGGGACCCA, GGCCGGCAUGGUCCCAGCCUUCUCGCUGGCGCAGGCUGGGCAACAUUCCGAGGGGACCGUCCCCUCGGUAAUGGCGAAUGGGACCCA is lower in self-cleavage: 0.147 for the first, 0 for the second.

Going from GGCCGGCAUGGUCCCAGCCUGCUCGCUGGCGCCGGCUGGGCAACAUUCCGAGGGGACCGUCCCCUCGGUAAUAGCGAAUGGGACCCA to GGCCGGCAUGGUCCCAGCCUGCUCGCUGGCGCCGGCUGGGCAACAUUCCGAGGGGACCGUCCCCUCGGGAAUGGCGAAUGGGACCCA, the self-cleavage falls from 0.111 to 0.

First: GGCCGGCAUGGUCCCAGCCUUCUCGCUGGCGCCGGCUGGGCAACAUUCCGAGGGGACCGUCCCCUCGGUAAUGGCGUAUGGGACCCA
Second: GGCCGGCAUGGUCCCAGCCUUCUCGCUGGCGCCGGCUGGGCAACAUUCCGAGGGGACCGUCCCCUCGGUAAUGGCUAAUGGGACCCA
The self-cleavage of the first is lower: 0.13 for the first, 0.542 for the second.
